Test results published in patent US20250304690A1 (HANGZHOU VIROMAB BIOTECH, published 2025).

What was measured:
hCD3 (human CD3 antigen) = hCD3 (human CD3 antigen) (human, UniProt P07766 23-126); assay: ELISA, plate-coated hCD3
Experimental: The activity of the prepared humanized antibodies was assessed by ELISA as follows: hCD3 (human CD3 antigen) was diluted to 0.5 g/mL using a coating solution and then added to a 96-well plate at 100 μL/well, and the plate was incubated overnight at 4° C. The plate was washed with PBST. Then 200 µL of a blocking solution was added to each well, and blocking was performed at a temperature of 37° C. for 2 h. The plate was washed with PBST. Then diluted antibodies (the initial concentration was 40 nM, and serial dilution was performed in a 1:6 ratio) were added at 100 L/well, and the plate was incubated at a temperature of 37° C. for 2 h. The plate was washed with PBST. Then an HRP-labeled goat anti-human IgG was added at 100 L/well, and the plate was incubated at 37° C. for 1 h. The plate was washed with PBST, and TMB was added at 100 L/well. Color development was performed at 37° C. for 10-20 min, and 50 µL of 2 M H₂SO₄ was added to each well to stop the reaction. Readings were taken at 450 nm.

[1] = molecular target: T1, CD3 on Jurkat cells and on human T cells (human, UniProt P07766 23-207); assay: flow cytometry on Jurkat cells
T1 construct: whole, on cells; also called CD3 end; CD3 antigen
Experimental: (§1) Then diluted antibodies with different concentrations were added. The cells were incubated at 4° C. for 0.5 h, centrifuged at 1200 rpm for 3-5 min, and washed with a FACS buffer. Then a goat anti-human IgG secondary antibody (manufacturer: Abcam, ab98596) was added at 100 L/well. The cells were incubated at 4° C. for 0.5 h, centrifuged at 1200 rpm for 3-5 min, washed with a FACs buffer, and resuspended in 50 μL of a FACs buffer, and assays were performed using a flow cytometer.

CD3 on 293T-CD3 cells = assay: flow cytometry on 293T-CD3 cells
Chain of CD3 on 293T-CD3 cells (chain, as listed by the source): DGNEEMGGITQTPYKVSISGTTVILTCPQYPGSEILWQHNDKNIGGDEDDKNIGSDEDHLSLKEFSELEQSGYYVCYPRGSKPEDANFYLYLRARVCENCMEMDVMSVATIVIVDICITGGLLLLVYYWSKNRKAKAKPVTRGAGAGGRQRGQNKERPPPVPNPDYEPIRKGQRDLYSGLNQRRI
Experimental: as §1

Chain of hCD3 (human CD3 antigen) (P07766 23-126): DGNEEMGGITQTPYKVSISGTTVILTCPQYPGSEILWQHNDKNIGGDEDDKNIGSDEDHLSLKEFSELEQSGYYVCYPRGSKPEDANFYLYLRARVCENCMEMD
T1 sequence (P07766 23-207): as the sequence (chain, as listed by the source) above

Binder | EC50 (hCD3 (human CD3 antigen)) [nM] | EC50 [1] [nM] | EC50 (CD3 on 293T-CD3 cells) [nM]
CD3 Ab07 (antibody, human IgG1, kappa, V domains shown, also called humanized anti-CD3 monoclonal antibody) VH: EVQLVESGGGLVQPGGSLRLSCAASGFTFNTYAMNWVRQAPGKGLEWVARIRSKYNNYATYYADSVKDRFTISRDDSKNILYLQMNSLKTEDTAVYYCVRHGNFGNSYVSWFAYWGQGTLVTVSA VL: QAVVTQEPSLTVSPGGTVTLTCRSSTGAVTTSNYANWVQQKPGQAPRGLIGGTNKRAPWTPARFSGSLLGGKAALTLSGAQTEDEAEYYCALWYSNLWVFGGGTKLTVLR | 0.0129 | 2.42 | 9.02
CD3 Ab01 (antibody, human IgG1, kappa, V domains shown, also called humanized anti-CD3 monoclonal antibody) VH: EVQLVESGGGLVQPGGSLRLSCAASGFTFNTYAMNWVRQAPGKGLEWVARIRSKYNNYATYYADSVKDRFTISRDDSKNSLYLQMNSLKTEDTAVYYCVRHGNFGNSYVSWFAYWGQGTLVTVSA VL: QAVVTQEPSLTVSPGGTVTLTCRSSTGAVTTSNYANWVQQKPGQAPRGLIGGTNKRAPWTPARFSGSLLGGKAALTLSGAQPEDEAEYYCALWYSNLWVFGGGTKLTVLR | 0.0096 | 3.3 | 22.6
CD3 Ab02 (antibody, human IgG1, kappa, V domains shown, also called humanized anti-CD3 monoclonal antibody) VH: EVQLVESGGGLVQPGGSLRLSCAASGFTFNTYAMNWVRQAPGKGLEWVARIRSKYNNYATYYADSVKDRFTISRDDSKNSLYLQMNSLKTEDTAVYYCVRHGNFGNSYVSWFAYWGQGTLVTVSA VL: QAVVTQEPSLTVSPGGTVTLTCRSSTGAVTTSNYANWVQQKPGQAPRGLIGGTNKRAPWTPARFSGSLLGGKAALTLSGAQTEDEAEYYCALWYSNLWVFGGGTKLTVLR | 0.0117 | 2.64 | 12.3
CD3 Ab03 (antibody, human IgG1, kappa, V domains shown, also called humanized anti-CD3 monoclonal antibody) VH: EVQLVESGGGLVQPGGSLRLSCAASGFTFNTYAMNWVRQAPGKGLEWVARIRSKYNNYATYYADSVKDRFTISRDDSKNSLYLQMNSLKTEDTAVYYCVRHGNFGNSYVSWFAYWGQGTLVTVSA VL: QAVVTQEPSLTVSPGGTVTLTCRSSTGAVTTSNYANWVQQKPGQAPRGLIGGTNKRAPWTPARFSGSLLGGKAALTITGAQTEDEAEYYCALWYSNLWVFGGGTKLTVLR | 0.0042 | 2.28 | 10.1
CD3 Ab04 (antibody, human IgG1, kappa, V domains shown, also called humanized anti-CD3 monoclonal antibody) VH: EVQLVESGGGLVQPGGSLRLSCAASGFTFNTYAMNWVRQAPGKGLEWVARIRSKYNNYATYYADSVKDRFTISRDDSKNSLYLQMNSLKTEDTAVYYCVRHGNFGNSYVSWFAYWGQGTLVTVSA VL: QAVVTQEPSLTVSPGGTVTLTCRSSTGAVTTSNYANWVQQKPGQAPRGLIGGTNKRAPWVPARFSGSLLGDKAALTLSGAQTEDEAEYYCALWYSNLWVFGGGTKLTVLR | 0.0068 | 1.18 | 5.23
CD3 Ab05 (antibody, human IgG1, kappa, V domains shown, also called humanized anti-CD3 monoclonal antibody) VH: EVQLVESGGGLVQPGGSLRLSCAASGFTFNTYAMNWVRQAPGKGLEWVARIRSKYNNYATYYADSVKDRFTISRDDSKNSLYLQMNSLKTEDTAVYYCVRHGNFGNSYVSWFAYWGQGTLVTVSA VL: QAVVTQEPSLTVSPGGTVTLTCRSSTGAVTTSNYANWVQEKPGQAPRGLIGGTNKRAPWVPARFSGSLLGDKAALTLSGAQTEDEAEYYCALWYSNLWVFGGGTKLTVLR | 0.0099 | 1.02 | 4.27
CD3 Ab06 (antibody, human IgG1, kappa, V domains shown, also called humanized anti-CD3 monoclonal antibody) VH: EVQLVESGGGLVQPGGSLRLSCAASGFTFNTYAMNWVRQAPGKGLEWVARIRSKYNNYATYYADSVKDRFTISRDDSKNILYLQMNSLKTEDTAVYYCVRHGNFGNSYVSWFAYWGQGTLVTVSA VL: QAVVTQEPSLTVSPGGTVTLTCRSSTGAVTTSNYANWVQQKPGQAPRGLIGGTNKRAPWTPARFSGSLLGGKAALTLSGAQPEDEAEYYCALWYSNLWVFGGGTKLTVLR | 0.0126 | 3.31 | 13
CD3 Ab08 (antibody, human IgG1, kappa, V domains shown, also called humanized anti-CD3 monoclonal antibody) VH: EVQLVESGGGLVQPGGSLRLSCAASGFTFNTYAMNWVRQAPGKGLEWVARIRSKYNNYATYYADSVKDRFTISRDDSKNILYLQMNSLKTEDTAVYYCVRHGNFGNSYVSWFAYWGQGTLVTVSA VL: QAVVTQEPSLTVSPGGTVTLTCRSSTGAVTTSNYANWVQQKPGQAPRGLIGGTNKRAPWTPARFSGSLLGGKAALTITGAQTEDEAEYYCALWYSNLWVFGGGTKLTVLR | 0.0116 | 1.82 | 4.24
CD3 Ab09 (antibody, human IgG1, kappa, V domains shown, also called humanized anti-CD3 monoclonal antibody) VH: EVQLVESGGGLVQPGGSLRLSCAASGFTFNTYAMNWVRQAPGKGLEWVARIRSKYNNYATYYADSVKDRFTISRDDSKNILYLQMNSLKTEDTAVYYCVRHGNFGNSYVSWFAYWGQGTLVTVSA VL: QAVVTQEPSLTVSPGGTVTLTCRSSTGAVTTSNYANWVQQKPGQAPRGLIGGTNKRAPWVPARFSGSLLGDKAALTLSGAQTEDEAEYYCALWYSNLWVFGGGTKLTVLR | 0.008 | 0.862 | 4.4
CD3 Ab10 (antibody, human IgG1, kappa, V domains shown, also called humanized anti-CD3 monoclonal antibody) VH: EVQLVESGGGLVQPGGSLRLSCAASGFTFNTYAMNWVRQAPGKGLEWVARIRSKYNNYATYYADSVKDRFTISRDDSKNILYLQMNSLKTEDTAVYYCVRHGNFGNSYVSWFAYWGQGTLVTVSA VL: QAVVTQEPSLTVSPGGTVTLTCRSSTGAVTTSNYANWVQEKPGQAPRGLIGGTNKRAPWVPARFSGSLLGDKAALTLSGAQTEDEAEYYCALWYSNLWVFGGGTKLTVLR | 0.002 | 0.784 | 2.44
CD3 Ab11 (antibody, human IgG1, kappa, V domains shown, also called humanized anti-CD3 monoclonal antibody) VH: EVQLVESGGGLVQPGGSLRLSCAASGFTFNTYAMNWVRQAPGKGLEWVARIRSKYNNYATYYADSVKDRFTISRDDSKNILYLQMNSLKTEDTAMYYCVRHGNFGNSYVSWFAYWGQGTLVTVSA VL: QAVVTQEPSLTVSPGGTVTLTCRSSTGAVTTSNYANWVQQKPGQAPRGLIGGTNKRAPWTPARFSGSLLGGKAALTLSGAQPEDEAEYYCALWYSNLWVFGGGTKLTVLR | 0.0118 | 4.45 | 21.6
CD3 Ab12 (antibody, human IgG1, kappa, V domains shown, also called humanized anti-CD3 monoclonal antibody) VH: EVQLVESGGGLVQPGGSLRLSCAASGFTFNTYAMNWVRQAPGKGLEWVARIRSKYNNYATYYADSVKDRFTISRDDSKNILYLQMNSLKTEDTAMYYCVRHGNFGNSYVSWFAYWGQGTLVTVSA VL: QAVVTQEPSLTVSPGGTVTLTCRSSTGAVTTSNYANWVQQKPGQAPRGLIGGTNKRAPWTPARFSGSLLGGKAALTLSGAQTEDEAEYYCALWYSNLWVFGGGTKLTVLR | 0.0095 | 3.52 | 15.8
CD3 Ab13 (antibody, human IgG1, kappa, V domains shown, also called humanized anti-CD3 monoclonal antibody) VH: EVQLVESGGGLVQPGGSLRLSCAASGFTFNTYAMNWVRQAPGKGLEWVARIRSKYNNYATYYADSVKDRFTISRDDSKNILYLQMNSLKTEDTAMYYCVRHGNFGNSYVSWFAYWGQGTLVTVSA VL: QAVVTQEPSLTVSPGGTVTLTCRSSTGAVTTSNYANWVQQKPGQAPRGLIGGTNKRAPWTPARFSGSLLGGKAALTITGAQTEDEAEYYCALWYSNLWVFGGGTKLTVLR | 0.0099 | 3.19 | 12.4
CD3 Ab14 (antibody, human IgG1, kappa, V domains shown, also called humanized anti-CD3 monoclonal antibody) VH: EVQLVESGGGLVQPGGSLRLSCAASGFTFNTYAMNWVRQAPGKGLEWVARIRSKYNNYATYYADSVKDRFTISRDDSKNILYLQMNSLKTEDTAMYYCVRHGNFGNSYVSWFAYWGQGTLVTVSA VL: QAVVTQEPSLTVSPGGTVTLTCRSSTGAVTTSNYANWVQQKPGQAPRGLIGGTNKRAPWVPARFSGSLLGDKAALTLSGAQTEDEAEYYCALWYSNLWVFGGGTKLTVLR | 0.0087 | 1.14 | 5.73
